The source of these data is the Immune Epitope Database (IEDB).

Broadly, the Kd is a measure of binding affinity in units of concentration.

What all share (assay): IEDB peptide-MHC binding, purified MHC/competitive/radioactivity; filed as Kd, often an IC50 or EC50 that approximates it; ≥ and ≤ were set here for values at or beyond the usual limits of such assays
Holding throughout (details): source organism: Toxoplasma gondii

The target of test [1] is HLA-A*68:02.
In test [2] the target is HLA-A*02:06.
Test [3] addresses HLA-A*02:02.
The target of test [4] is HLA-A*02:01.
Test [5] deals with HLA-A*02:03.

Turning to FLLGLLVHV, the Kd in test [1] came to 173 nM; in test [2], 9.9 nM; in test [3], 37 nM; in test [4] it was 6.4 nM; in test [5] it was 4.6 nM.
Taken in the same sequence, the figures for FLSLSLLVI were 9830 nM, at least 10000 nM, 173 nM, 736 nM and 83 nM.
For FLTDYIPGA, in that order: 2100 nM, 1.2 nM, 7.1 nM, 0.7 nM and 7.8 nM.
For FMIAFISCFA, in that order: 397 nM, 112 nM, 56 nM, 32 nM and 56 nM.
FMIVSISLV: the Kd in test [1] is 48 nM; in test [2] it was 6.2 nM; in test [3] it was 1.8 nM; in test [4], 16 nM; in test [5], at most 1 nM.
Taken in the same sequence, the figures for FVIFACNFV were 1.2 nM, 5.6 nM, 11 nM, 34 nM and 6.5 nM.
For the sequence GLAAAVVAV, the dissociation constant (Kd) in test [1] is 263 nM; in test [2], 55 nM; in test [3], 31 nM; in test [4] it was 9.6 nM; in test [5] it was 1.3 nM.
For ITMGSLFFV, the Kd turned out to be 1.1 nM in test [1]; 0.26 nM in test [2]; 0.64 nM in test [3]; 0.16 nM in test [4]; 0.5 nM in test [5].
